According to the supplement of paper PMC11316812:
± gives the standard deviation of the averaged measurements.

Legend:
MCF7 = experiment: percentage of EdU-negative (G0-arrested) nuclei per well, 72 h; higher = more G0 arrest; settings: reference: sequence is the full UniProt precursor, the tested protein was the secreted form or ectodomain
hTERT-HMEC = experiment: as above; settings: reference: sequence is the full UniProt precursor, the tested protein was the secreted form or ectodomain
[1] = protein concentration 0.0238325 µM
[2] = protein concentration 0.238325 µM
[3] = protein concentration 0.0185 µM
[4] = protein concentration 0.0225 µM
[5] = protein concentration 0.0166175 µM
[6] = protein concentration 0.166175 µM
[7] = protein concentration 0.00714286 µM
[8] = protein concentration 0.0714286 µM
[9] = protein concentration 0.01275 µM
[10] = protein concentration 0.1275 µM
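Further: secreted proteins added to cultured cells, EdU pulse at the end, nuclei found by Hoechst imaging, EdU status from nuclear versus surrounding ring intensity ratio, PBS as neutral control.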

Sequence: MLPCLVVLLAALLSLRLGSDAHGTELPSPPSVWFEAEFFHHILHWTPIPNQSESTCYEVALLRYGIESWNSISNCSQTLSYDLTAVTLDLYHSNGYRARVRAVDGSRHSNWTVTNTRFSVDEVTLTVGSVNLEIHNGFILGKIQLPRPKMAPANDTYESIFSHFREYEIAIRKVPGNFTFTHKKVKHENFSLLTSGEVGEFCVQVKPSVASRSNKGMWSKEECISLTRQYFTVTNVIIFFAFVLLLSGALAYCLALQLYVRRRKKLPSVLLFKKPSPFIFISQRPSPETQDTIHPLDEEAFLKVSPELKNLDLHGSTDSGFGSTKPSLQTEEPQFLLPDPHPQADRTLGNREPPVLGDSCSSGSSNSTDSGICLQEPSLSPSTGPTWEQQVGSNSRGQDDSGIDLVQNSEGRAGDTQGGSALGHHSPPEPEVPGEEDPAAVAFQGYLRQTRCAEEKATKTGCLEEESPLTDGLGPKFGRCLVDEAGLHPPALAKGYLKQDPLEMTLASSGAPTGQWNQPTEEWSLLALSSCSDLGISDWSFAHDLAPLGCVAAPGGLLGSFNSDLVTLPLISSLQSSE
- percentage of EdU-negative (MCF7; [1]): 27.3 ± 1.9%
- percentage of EdU-negative (MCF7; [2]): 25.3 ± 2.5%
- percentage of EdU-negative (hTERT-HMEC; [1]): 5.02 ± 0.64%
- percentage of EdU-negative (hTERT-HMEC; [2]): 5.96 ± 0.77%

Sequence: MAREMTILGSAVLTLLLAGYLAQQYLPLPTPKVIGIDLGTTYCSVGVFFPGTGKVKVIPDENGHISIPSMVSFTDNDVYVGYESVELADSNPQNTIYDAKRFIGKIFTAEELEAEIGRYPFKVLNKNGMVEFSVTSNETITVSPEYVGSRLLLKLKEMAEAYLGMPVANAVISVPAEFDLKQRNSTIEAANLAGLKILRVINEPTAAAMAYGLHKADVFHVLVIDLGGGTLDVSLLNKQGGMFLTRAMSGNNKLGGQDFNQRLLQYLYKQIYQTYGFVPSRKEEIHRLRQAVEMVKLNLTLHQSAQLSVLLTVEEQDRKEPHSSDTELPKDKLSSADDHRVNSGFGRGLSDKKSGESQVLFETEISRKLFDTLNEDLFQKILVPIQQVLKEGHLEKTEIDEVVLVGGSTRIPRIRQVIQEFFGKDPNTSVDPDLAVVTGVAIQAGIDGGSWPLQVSALEIPNKHLQKTNFN
- percentage of EdU-negative (MCF7; [3]): 25 ± 2%
- percentage of EdU-negative (MCF7; protein concentration 0.185 µM): 25.9 ± 0.78%
- percentage of EdU-negative (hTERT-HMEC; [3]): 4.53 ± 0.31%
- percentage of EdU-negative (hTERT-HMEC; protein concentration 0.185 µM): 5.54 ± 0.38%

Sequence: MTPPPPGRAAPSAPRARVPGPPARLGLPLRLRLLLLLWAAAASAQGHLRSGPRIFAVWKGHVGQDRVDFGQTEPHTVLFHEPGSSSVWVGGRGKVYLFDFPEGKNASVRTVNIGSTKGSCLDKRDCENYITLLERRSEGLLACGTNARHPSCWNLVNGTVVPLGEMRGYAPFSPDENSLVLFEGDEVYSTIRKQEYNGKIPRFRRIRGESELYTSDTVMQNPQFIKATIVHQDQAYDDKIYYFFREDNPDKNPEAPLNVSRVAQLCRGDQGGESSLSVSKWNTFLKAMLVCSDAATNKNFNRLQDVFLLPDPSGQWRDTRVYGVFSNPWNYSAVCVYSLGDIDKVFRTSSLKGYHSSLPNPRPGKCLPDQQPIPTETFQVADRHPEVAQRVEPMGPLKTPLFHSKYHYQKVAVHRMQASHGETFHVLYLTTDRGTIHKVVEPGEQEHSFAFNIMEIQPFRRAAAIQTMSLDAERRKLYVSSQWEVSQVPLDLCEVYGGGCHGCLMSRDPYCGWDQGRCISIYSSERSVLQSINPAEPHKECPNPKPDKAPLQKVSLAPNSRYYLSCPMESRHATYSWRHKENVEQSCEPGHQSPNCILFIENLTAQQYGHYFCEAQEGSYFREAQHWQLLPEDGIMAEHLLGHACALAASLWLGVLPTLTLGLLVH
- percentage of EdU-negative (MCF7; [4]): 24.7 ± 2.4%
- percentage of EdU-negative (MCF7; protein concentration 0.225 µM): 25.6 ± 1.6%
- percentage of EdU-negative (hTERT-HMEC; [4]): 4.66 ± 0.25%
- percentage of EdU-negative (hTERT-HMEC; protein concentration 0.225 µM): 5.49 ± 0.49%

Sequence: MPRAPAPLYACLLGLCALLPRLAGLNICTSGSATSCEECLLIHPKCAWCSKEDFGSPRSITSRCDLRANLVKNGCGGEIESPASSFHVLRSLPLSSKGSGSAGWDVIQMTPQEIAVNLRPGDKTTFQLQVRQVEDYPVDLYYLMDLSLSMKDDLDNIRSLGTKLAEEMRKLTSNFRLGFGSFVDKDISPFSYTAPRYQTNPCIGYKLFPNCVPSFGFRHLLPLTDRVDSFNEEVRKQRVSRNRDAPEGGFDAVLQAAVCKEKIGWRKDALHLLVFTTDDVPHIALDGKLGGLVQPHDGQCHLNEANEYTASNQMDYPSLALLGEKLAENNINLIFAVTKNHYMLYKNFTALIPGTTVEILDGDSKNIIQLIINAYNSIRSKVELSVWDQPEDLNLFFTATCQDGVSYPGQRKCEGLKIGDTASFEVSLEARSCPSRHTEHVFALRPVGFRDSLEVGVTYNCTCGCSVGLEPNSARCNGSGTYVCGLCECSPGYLGTRCECQDGENQSVYQNLCREAEGKPLCSGRGDCSCNQCSCFESEFGKIYGPFCECDNFSCARNKGVLCSGHGECHCGECKCHAGYIGDNCNCSTDISTCRGRDGQICSERGHCLCGQCQCTEPGAFGEMCEKCPTCPDACSTKRDCVECLLLHSGKPDNQTCHSLCRDEVITWVDTIVKDDQEAVLCFYKTAKDCVMMFTYVELPSGKSNLTVLREPECGNTPNAMTILLAVVGSILLVGLALLAIWKLLVTIHDRREFAKFQSERSRARYEMASNPLYRKPISTHTVDFTFNKFNKSYNGTVD
- percentage of EdU-negative (MCF7; [4]): 25.2 ± 1.3%
- percentage of EdU-negative (MCF7; protein concentration 0.225 µM): 26 ± 1.5%
- percentage of EdU-negative (hTERT-HMEC; [4]): 5.13 ± 0.59%
- percentage of EdU-negative (hTERT-HMEC; protein concentration 0.225 µM): 7.6 ± 1.1%

Sequence: MERAAPSRRVPLPLLLLGGLALLAAGVDADVLLEACCADGHRMATHQKDCSLPYATESKECRMVQEQCCHSQLEELHCATGISLANEQDRCATPHGDNASLEATFVKRCCHCCLLGRAAQAQGQSCEYSLMVGYQCGQVFQACCVKSQETGDLDVGGLQETDKIIEVEEEQEDPYLNDRCRGGGPCKQQCRDTGDEVVCSCFVGYQLLSDGVSCEDVNECITGSHSCRLGESCINTVGSFRCQRDSSCGTGYELTEDNSCKDIDECESGIHNCLPDFICQNTLGSFRCRPKLQCKSGFIQDALGNCIDINECLSISAPCPIGHTCINTEGSYTCQKNVPNCGRGYHLNEEGTRCVDVDECAPPAEPCGKGHRCVNSPGSFRCECKTGYYFDGISRMCVDVNECQRYPGRLCGHKCENTLGSYLCSCSVGFRLSVDGRSCEDINECSSSPCSQECANVYGSYQCYCRRGYQLSDVDGVTCEDIDECALPTGGHICSYRCINIPGSFQCSCPSSGYRLAPNGRNCQDIDECVTGIHNCSINETCFNIQGGFRCLAFECPENYRRSAATLQQEKTDTVRCIKSCRPNDVTCVFDPVHTISHTVISLPTFREFTRPEEIIFLRAITPPHPASQANIIFDITEGNLRDSFDIIKRYMDGMTVGVVRQVRPIVGPFHAVLKLEMNYVVGGVVSHRNVVNVHIFVSEYWF
- percentage of EdU-negative (MCF7; [5]): 27.1 ± 0.61%
- percentage of EdU-negative (MCF7; [6]): 26.7 ± 1.6%
- percentage of EdU-negative (hTERT-HMEC; [5]): 3.95 ± 0.058%
- percentage of EdU-negative (hTERT-HMEC; [6]): 5.63 ± 0.19%

Sequence: MGSGAGELGRAERLPVLFLFLLSLFCPALCEQIRYRIPEEMPKGSVVGNLATDLGFSVQELPTRKLRVSSEKPYFTVSAESGELLVSSRLDREEICGKKPACALEFEAVAENPLNFYHVNVEIEDINDHTPKFTQNSFELQISESAQPGTRFILEVAEDADIGLNSLQKYKLSLNPSFSLIIKEKQDGSKYPELALEKTLDREQQSYHRLVLTALDGGHPPLSGTTELRIQVTDANDNPPVFNRDVYRVSLRENVPPGTTVLQVSATDQDEGINSEITYSFYRTGQIFSLNSKSGEITTQKKLDFEETKEYSMVVEGRDGGGLVAQCTVEINIQDENDNSPEVTFHSLLEMILENAVPGTLIALIKIHDQDSGENGEVNCQLQGEVPFKIISSSKNSYKLVTDGTLDREQTPEYNVTITATDRGKPPLSSSISVILHIRDVNDNAPVFHQASYLVSVPENNPPGASIAQVCASDLDLGLNGQVSYSIMASDLEPLALASYVSMSAQSGVVFAQRAFDYEQLRTFELTLQARDQGSPALSANVSLRVLVGDRNDNAPRVLYPALGPDGSALFDMVPRAAEPGYLVTKVVAVDADSGHNAWLSYHVLQASEPGLFSLGLRTGEVRTARALGDRDAARQRLLVAVRDGGQPPLSATATLHLVFADSLQEVLPDITDRPVPSDPQAELQFYLVVALALISVLFLLAVILAVALRLRRSSSPAAWSCFQPGLCVKSGPVVPPNYSQGTLPYSYNLCVAHTGKTEFNFLKCSEQLSSGQDILCGDSSGALFPLCNSSESTSHPELQAPPNTDWRFSQAQRPGTSGSQNGDDTGTWPNNQFDTEMLQAMILASASEAADGSSTLGGGAGTMGLSARYGPQFTLQHVPDYRQNVYIPGSNATLTNAAGKRDGKAPAGGNGNKKKSGKKEKK [Q9Y5G0]
- percentage of EdU-negative (MCF7; [7]): 26.7 ± 4%
- percentage of EdU-negative (MCF7; [8]): 34.45 ± 0.24%
- percentage of EdU-negative (hTERT-HMEC; [7]): 5.16 ± 0.12%
- percentage of EdU-negative (hTERT-HMEC; [8]): 11.4 ± 4.3%

Sequence: MAATSLMSALAARLLQPAHSCSLRLRPFHLAAVRNEAVVISGRKLAQQIKQEVRQEVEEWVASGNKRPHLSVILVGENPASHSYVLNKTRAAAVVGINSETIMKPASISEEELLNLINKLNNDDNVDGLLVQLPLPEHIDERRICNAVSPDKDVDGFHVINVGRMCLDQYSMLPATPWGVWEIIKRTGIPTLGKNVVVAGRSKNVGMPIAMLLHTDGAHERPGGDATVTISHRYTPKEQLKKHTILADIVISAAGIPNLITADMIKEGAAVIDVGINRVHDPVTAKPKLVGDVDFEGVRQKAGYITPVPGGVGPMTVAMLMKNTIIAAKKVLRLEEREVLKSKELGVATN
- percentage of EdU-negative (MCF7; [9]): 24 ± 0.89%
- percentage of EdU-negative (MCF7; [10]): 29 ± 2%
- percentage of EdU-negative (hTERT-HMEC; [9]): 4.46 ± 0.17%
- percentage of EdU-negative (hTERT-HMEC; [10]): 5.45 ± 0.4%

Sequence: MAARALCMLGLVLALLSSSSAEEYVGLSANQCAVPAKDRVDCGYPHVTPKECNNRGCCFDSRIPGVPWCFKPLQEAECTF
- percentage of EdU-negative (MCF7; [4]): 26.62 ± 0.26%
- percentage of EdU-negative (MCF7; protein concentration 0.225 µM): 24 ± 0.99%
- percentage of EdU-negative (hTERT-HMEC; [4]): 4.3 ± 0.16%
- percentage of EdU-negative (hTERT-HMEC; protein concentration 0.225 µM): 4.29 ± 0.22%
